Here are results for 4 molecules from PMC6668372, “Trypanosoma brucei centrin5 is enriched in the flagellum and interacts with other centrins in a calcium‐dependent manner” (FEBS Open Bio, 2019).

Sequences and labels used below:
B2: Trypanosoma brucei centrin5 (TbCentrin5), purified, His-tag removed (natural protein, UniProt Q382E7 1-186, looked up)
chain: MEGPKLKGAARCAAVEKVESKTQLSIAISEKHKAQLREAFDFFDSDGTGRINAQDVKVAFCALGYEVGKEELTHLLRQVGASTTGVIDFNDFYSVIIAKIMQRENRSEAIRAFKLIDTGEKGYINVDDLRPIAASLQMNLTDDELAEMVLFAHPSATYSKADTEMKDPLTVSEEEFLKLMNRAHVY
notes: TbCentrin5 of Trypanosoma brucei, Tb927.11.13900, full-length gene amplified from genomic DNA; 186 amino acids, about 20 kDa calculated; also called centrin5 of T. brucei; Tb927.11.13900; source: E. coli BL21 (DE3), purified (TEV digestion, gel filtration Sephadex G-75); not shown: His-tag, N-terminal, cleaved

The target in data set [1] is B2. In words: ITC; iTC200, 16 °C, 20 mM Tris/HCl pH 7.0, 100 mM NaCl; 50 uM TbCentrin1/2/3/4 in the cell, 0.5 mM TbCentrin5 in the syringe; without EGTA treatment. The following applies: both partners purified.
The target of data set [2] is T1, TbCentrin4, purified for ITC (Trypanosoma brucei, UniProt Q57WF6 1-149).
T1 chain: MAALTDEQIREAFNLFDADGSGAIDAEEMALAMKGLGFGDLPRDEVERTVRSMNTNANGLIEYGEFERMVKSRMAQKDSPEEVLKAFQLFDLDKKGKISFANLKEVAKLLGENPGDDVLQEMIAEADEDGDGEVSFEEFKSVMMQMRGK
In words: ITC. For orientation: In ITC the heat of successive injections is recorded.

Data set [3] deals with T2, TbCentrin3, purified for ITC (Trypanosoma brucei, UniProt Q38AA2 1-165).
T2 chain: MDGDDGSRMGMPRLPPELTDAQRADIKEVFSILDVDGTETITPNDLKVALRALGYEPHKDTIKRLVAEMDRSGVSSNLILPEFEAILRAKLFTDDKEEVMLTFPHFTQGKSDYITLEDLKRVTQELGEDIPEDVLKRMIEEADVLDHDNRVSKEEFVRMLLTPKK
Briefly: ITC.

Data set [4] concerns the molecule itself. In words: SEC; gel filtration on Superdex G-75 column, elution at about 66 mL corresponding to about 36 kDa; SDS/PAGE showed no disulfide bond.

Broadly, the Kd is the constant that tells how readily two partners part at equilibrium. The low end stands for tighter binding, the high end for weaker binding. As usually defined, the stoichiometry N is a count of units in the complex or per binding partner.

B1: TbCentrin1, purified for ITC (natural protein, Trypanosoma brucei, UniProt Q584G1 1-182, looked up)
chain: MSSSRPATGNRLAVPIRTNLPVPAPRKRRFELTDEQRQEIREAFELFDSDKNGLIDAHEMKVSMRALGFDAKKEEVLRMMQDCAARDQHNNPLMDLAGFTDLMTERFAQRDPRQEMIKAFQLFDENNTGKISLRSLRRVARELGENMTDEELQAMIDEFDTDQDGEINLDEFLAIMLEDDDY
notes: TbCentrin1 of Trypanosoma brucei, Tb927.04.2260; Cloning, tag and host of this protein are not described; also called Tb927.04.2260; source: purified and equilibrated as above (gel filtration Sephadex G-75)
In data set [1], B1 displayed a Kd of 105 µM.
Take B2: the figures for the Kd in data set [2] and in data set [3] were 16 µM and 56 µM, respectively. Further, the “stoichiometry N” value in data set [4] came out at 2.

B3: TbCentrin4, purified for ITC (natural protein, Trypanosoma brucei, UniProt Q57WF6 1-149, looked up)
chain: MAALTDEQIREAFNLFDADGSGAIDAEEMALAMKGLGFGDLPRDEVERTVRSMNTNANGLIEYGEFERMVKSRMAQKDSPEEVLKAFQLFDLDKKGKISFANLKEVAKLLGENPGDDVLQEMIAEADEDGDGEVSFEEFKSVMMQMRGK
notes: TbCentrin4 of Trypanosoma brucei, Tb927.07.3410; Cloning, tag and host of this protein are not described; also called TbCentirn4; Tb927.07.3410; source: purified and equilibrated as above (gel filtration Sephadex G-75)
In the case of B3, the Kd in data set [1] amounted to 12 µM.

B4: TbCentrin3, purified for ITC (natural protein, Trypanosoma brucei, UniProt Q38AA2 1-165, looked up)
chain: MDGDDGSRMGMPRLPPELTDAQRADIKEVFSILDVDGTETITPNDLKVALRALGYEPHKDTIKRLVAEMDRSGVSSNLILPEFEAILRAKLFTDDKEEVMLTFPHFTQGKSDYITLEDLKRVTQELGEDIPEDVLKRMIEEADVLDHDNRVSKEEFVRMLLTPKK
notes: TbCentrin3 of Trypanosoma brucei, Tb927.10.8710; Cloning, tag and host of this protein are not described; also called Tb927.10.8710; source: purified and equilibrated as above (gel filtration Sephadex G-75)
In data set [1], B4 came in with a Kd of 52 µM.
